Data from US20170168078A1.

B1: Monoclonal antibody 24F12.B1 (antibody, mouse IgG1, V domains shown)
VH: SGGGLVRPGGSLKLSCAASGFTFSSYAMSWVRQSPEKRLEWVAEIGSGGSYTYYPDTVTGRFTISRDNAKSTLYLEMSSLRSEDTAIYYCARETTAGYFDYWGQGTTLTVSS
VL: TSSLSASLGDRVTISCSASQGINNFLNWYQQKPDGTVKLLIYYTSSLHSGVPSRFSGSGSGTDYSLTISNLEPEDIAIYYCQHFSKLPWTFGGGTKLEIKR
B2: Monoclonal antibody 9F3.H9.H3.H3.B5.G2 (antibody, mouse IgG2a, V domains shown)
VH: ESGPGLVRPSQSLSLTCSVTGYSITSGYYWNWIRQFPGSRLEWMGYIKSDGSNNYNPSLKNRISITRDTSKNQFFLKLNSVTTEDTATYFCTREWKAMDYWGQGTSVTVSS
VL: PAIMSASPGEKVTMTCRASSTVSYSYLHWYQQKSGASPQLWIYGTSNLASGVPARFSGSGSGTSYSLTISSVEAEDAATYYCQQYSGYPLTFGAGTKLELKR
B3: Monoclonal antibody 26B3.F2 (antibody, mouse IgG1, V domains shown)
VH: GPELVKPGASVKISCKASDYSFTGYFMNWVMQSHGKSLEWIGRIFPYNGDTFYNQKFKGRATLTVDKSSSTAHMELRSLASEDSAVYFCARGTHYFDYWGQGTTLTVSS
VL: PASLSASVGETVTITCRTSENIFSYLAWYQQKQGISPQLLVYNAKTLAEGVPSRFSGSGSGTQFSLKINSLQPEDFGSYYCQHHYAFPWTFGGGSKLEIKR

Key:
[1] = target: human folate receptor delta (FRΔ) expressed on CHO cells (human) (UniProt A6ND01); assay: flow cytometry on cells expressing FRΔ, antibody 1 µg/mL (parental CHOK1: 5.9)
human folate receptor delta (FRΔ) expressed on CHO cells (human), sequence (A6ND01 20-228, stated change not applied): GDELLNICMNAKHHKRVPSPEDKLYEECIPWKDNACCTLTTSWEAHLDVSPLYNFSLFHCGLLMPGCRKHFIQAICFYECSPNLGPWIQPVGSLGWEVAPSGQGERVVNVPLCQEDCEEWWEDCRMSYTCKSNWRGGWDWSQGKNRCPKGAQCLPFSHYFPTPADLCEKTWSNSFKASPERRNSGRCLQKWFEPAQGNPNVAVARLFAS

[2] = target: human folate receptor delta (FRΔ) expressed on CHO cells (human) (UniProt A6ND01); assay: flow cytometry on cells expressing FRΔ, antibody 1 µg/mL (parental CHOK1: 5.7)

Row | Binder | Geometric Mean [1] | Geometric Mean [2]
1 | B1 | 5.9 | –
2 | B2 | 5.6 | –
3 | B3 | – | 5.4
